± gives the standard deviation of the averaged measurements.
Test system: ATP
Assay: switch fluorescence ratio, 500 uM ATP over buffer (Cy3 cluster intensity, sum of 5 cycles each) (fold (ratio)); higher = stronger signal-on switching upon ATP binding; sequences stand for … in TCGTCGGCAGCGTCAGATGTGTATAAGAGACAGTTTTTTTTTTTTTTTTTTTTTTTTT…TC
Conditions: aptamer strand: ATP DNA aptamer (quencher-CACCTGGGGGAGTATTGCGGAGGAAGG + anchor), 100 nM annealed; ATP concentration: 500 uM
Outline: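 Five buffer/ATP imaging cycles were run on Cy3-labelled switching-strand clusters on a modified Illumina MiSeq flow-cell, with NaOH stripping and re-annealing between cycles. In each cycle, clusters annealed to 100 nM quencher-labelled ATP aptamer were imaged in selection buffer, then after 15 min with 500 uM ATP at 22 °C. Per cluster, the fluorescence ratio is summed target-cycle over summed buffer-cycle Cy3 intensity, averaged per switch-domain sequence. Only clusters within 100-1000 RFU were kept.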
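Note: ATP exposure 15 min at 22 °C before imaging.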

Sequence	switch fluorescence ratio
CTGAGGAGAC	1.05 ± 0.042
CTGAGGCTGG	0.9933 ± 0.0021
CTGAGGGGAT	1.1 ± 0.047
CTGAGGGGCT	0.982 ± 0.02
CTGAGTGTGG	0.989 ± 0.028
CTGAGTTTGA	1 ± 0.013
CTGAGTTTGG	1.07 ± 0.061
CTGATAAAGT	0.9922 ± 0.0082
CTGATCAATG	1.1 ± 0.02
CTGATCAGCA	1.03 ± 0.04
CTGATCAGTT	1.02 ± 0.017
CTGATGCGCG	1 ± 0.016
CTGATTATCT	0.989 ± 0.02
CTGCATGTGC	2.14 ± 0.11
CTGCGGATGG	1.058 ± 0.0066
CTGCGTAGGG	1.04 ± 0.029
CTGCGTCTAT	1.08 ± 0.025
CTGCTAGATG	0.983 ± 0.051
CTGCTAGCGG	1.02 ± 0.065
CTGCTGAGGG	0.99 ± 0.013
CTGCTTGTGA	1.02 ± 0.026
CTGGAATTCA	1.02 ± 0.049
CTGGAGGTTG	0.998 ± 0.041

Sequence	switch fluorescence ratio
CTGGCAGTGG	1.05 ± 0.054
CTGGCATGGG	0.979 ± 0.014
CTGGCGTATG	0.997 ± 0.036
CTGGCTGGCA	0.995 ± 0.01
CTGGGAAGAG	1.01 ± 0.028
CTGGGACTTG	1 ± 0.013
CTGGGAGATT	1.02 ± 0.039
CTGGGAGGGA	0.991 ± 0.035
CTGGGAGGTT	0.97 ± 0.05
CTGGGCACAT	1.05 ± 0.015
CTGGGCGTGC	0.997 ± 0.03
CTGGGGAGGT	0.9946 ± 0.0044
CTGGGGATTT	1.02 ± 0.013
CTGGGGGAAG	0.985 ± 0.034
CTGGGGGGGG	1 ± 0.038
CTGGGGGTCA	1.04 ± 0.026
CTGGGGGTGC	1.06 ± 0.017
CTGGGGGTTC	1.01 ± 0.018
CTGGGGTAGG	1.04 ± 0.018
CTGGGGTTTT	0.991 ± 0.032
CTGGGTAGGG	1.008 ± 0.01
CTGGGTCTGA	1.02 ± 0.026
CTGGGTGCAT	1.14 ± 0.032

Sequence	switch fluorescence ratio
CTGGGTGGCG	1.01 ± 0.069
CTGGGTTAGG	0.973 ± 0.032
CTGGGTTGCG	0.958 ± 0.032
CTGGTAGAGG	0.979 ± 0.048
CTGGTAGGGA	1.06 ± 0.044
CTGGTATGGA	0.971 ± 0.065
CTGGTATGGG	1.01 ± 0.03
CTGGTCCAGG	1.12 ± 0.034
CTGGTCTTGC	1.04 ± 0.035
CTGGTGTGGC	0.982 ± 0.028
CTGGTTCTTT	0.9898 ± 0.0082
CTGTAAATTT	0.991 ± 0.03
CTGTAACGTT	1.015 ± 0.0015
CTGTAAGGCG	1.05 ± 0.025
CTGTAATTGG	1.006 ± 0.001
CTGTACGGAT	1.95 ± 1.7
CTGTAGCTGG	1.53 ± 0.05
CTGTAGGGTT	1.01 ± 0.034
CTGTATTTCT	1.03 ± 0.021
CTGTCTTGA	1 ± 0.038
CTGTGAGGGC	0.991 ± 0.037
CTGTGAGTTA	0.97 ± 0.038
CTGTGCAGCG	1.01 ± 0.019

Sequence	switch fluorescence ratio
CTGTGGAAAG	0.991 ± 0.018
CTGTGGATGG	1.01 ± 0.041
CTGTGGGAAG	0.995 ± 0.056
CTGTGGTATT	0.985 ± 0.018
CTGTGGTTGG	0.981 ± 0.011
CTGTGTATGT	1.02 ± 0.061
CTGTGTGATG	0.991 ± 0.017
CTGTGTGCCT	0.995 ± 0.07
CTGTGTTCTT	0.9864 ± 0.0065
CTGTTAATAG	1.12 ± 0.027
CTGTTAGTTG	0.993 ± 0.019
CTGTTATGTG	0.952 ± 0.015
CTGTTCACGG	1.017 ± 0.0092
CTGTTCCTTT	1.056 ± 0.0014
CTGTTGAGGG	1 ± 0.027
CTGTTGGGCC	0.9949 ± 0.0047
CTGTTGGGTT	0.997 ± 0.016
CTGTTTATTT	1.36 ± 0.54
CTTAAAGGCC	0.984 ± 0.026
CTTAAAGTCG	0.981 ± 0.0073
CTTAAATCTG	0.974 ± 0.084
CTTAAATGAA	1.02 ± 0.036
CTTAAATTAA	0.989 ± 0.051

Sequence	switch fluorescence ratio
CTTAAATTCG	0.987 ± 0.018
CTTAACCTTC	2.43 ± 0.31
CTTAACGGGA	0.99 ± 0.026
CTTAACTTAG	1.047 ± 0.0015
CTTACAGGTT	0.99 ± 0.036
CTTACGGAGG	1.01 ± 0.015
CTTAGAATTG	1.02 ± 0.012
CTTAGATCTG	1 ± 0.027
CTTAGATGGT	0.975 ± 0.015
CTTAGATTTT	0.988 ± 0.025
CTTAGGAAAG	0.98833 ± 0.00059
CTTAGGCGGT	1.038 ± 0.0062
CTTAGGGCGG	0.957 ± 0.027
CTTAGGGTTG	0.999 ± 0.013
CTTAGTATAT	1 ± 0.024
CTTAGTGTTC	0.992 ± 0.028
CTTATAATTG	0.9935 ± 0.00017
CTTATACTGG	1.02 ± 0.011
CTTATAGGTG	1.14 ± 0.059
CTTATCTCTT	1.02 ± 0.025
CTTATGACAG	0.988 ± 0.011
CTTATGGACT	0.991 ± 0.033
CTTATTAACT	0.9954 ± 0.0069

Sequence	switch fluorescence ratio
CTTATTAAGC	1.05 ± 0.011
CTTATTGTAG	0.964 ± 0.061
CTTATTTCCG	1.032 ± 0.0096
CTTATTTGGG	0.997 ± 0.031
CTTCACACGT	1.016 ± 0.01
CTTCAGGGAA	1.01 ± 0.032
CTTCGGCCTT	0.976 ± 0.02
CTTCGGTTCT	1.02 ± 0.028
CTTCTAAGTC	1.004 ± 0.0097
CTTCTAGTCC	1.03 ± 0.028
CTTCTGTCGT	1.034 ± 0.0018
CTTCTTGGAG	0.967 ± 0.026
CTTGAAGATG	0.973 ± 0.065
CTTGAAGGGA	0.995 ± 0.029
CTTGAATCGT	0.987 ± 0.013
CTTGACTGTG	1.03 ± 0.011
CTTGAGACGG	1.01 ± 0.017
CTTGCCGGCG	1.07 ± 0.03
CTTGCGGCCT	1.11 ± 0.15
CTTGCGGGCG	0.982 ± 0.012
CTTGCGGGGA	1.0408 ± 0.00045
CTTGCTTTTT	0.948 ± 0.0035
CTTGGAATGT	1.01 ± 0.029

Sequence	switch fluorescence ratio
CTTGGAGGA	1.024 ± 0.0093
CTTGGAGGCG	1.01 ± 0.036
CTTGGAGTTA	0.997 ± 0.025
CTTGGATGGG	0.9858 ± 0.0089
CTTGGATGTC	0.985 ± 0.03
CTTGGGCATG	0.988 ± 0.019
CTTGGGGAGC	0.982 ± 0.07
CTTGGGGATG	0.997 ± 0.042
CTTGGGGCTA	1.03 ± 0.088
CTTGGGGCTC	0.9457 ± 0.0082
CTTGGGGGCG	1.01 ± 0.056
CTTGGGGGTC	0.989 ± 0.014
CTTGGTAATA	1.062 ± 0.0066
CTTGGTAGGG	1.03 ± 0.051
CTTGGTCCCG	1.01 ± 0.011
CTTGGTGACG	1.09 ± 0.031
CTTGGTGGGA	1.04 ± 0.012
CTTGGTGGTG	0.995 ± 0.019
CTTGGTTGCG	0.999 ± 0.014

Source: the supplement of paper PMC10126150
